Consider 3 compounds from publication PMC4461205, “Structural bases for N-glycan processing by mannoside phosphorylase” (Acta Crystallographica Section D: Biological Crystallography, 2015).

In experiment [1] the target is T1, Uhgb_MP (uncultured organism, UniProt D9ZDQ9). Description: X-ray crystal structure, co-crystallization. The following applies: +1 subsite; with phosphate, glycerol in -1 subsite; co-crystallized with 5 mM N-acetylglucosamine, pH 7.0; 4C1 chair; 1.60 A; also with mannose in 4udk (1.76 A). On the set-up: homohexamer, 240 kDa by SEC-MALLS. The class given is binding.
T1 sequence (D9ZDQ9 entry or part of it): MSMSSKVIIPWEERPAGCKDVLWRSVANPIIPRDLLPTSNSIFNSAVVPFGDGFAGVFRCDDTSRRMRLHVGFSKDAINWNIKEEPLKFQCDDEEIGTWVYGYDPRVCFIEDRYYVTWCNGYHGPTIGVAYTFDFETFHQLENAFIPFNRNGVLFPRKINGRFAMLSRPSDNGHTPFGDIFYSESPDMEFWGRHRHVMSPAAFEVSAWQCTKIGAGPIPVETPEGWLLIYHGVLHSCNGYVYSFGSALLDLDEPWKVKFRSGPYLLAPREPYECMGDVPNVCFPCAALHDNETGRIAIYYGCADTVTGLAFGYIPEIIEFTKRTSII

In experiment [2] the target is Uhgb_MP, β-1,4-mannopyranosyl-chitobiose phosphorylase (GH130_2 mannoside phosphorylase) (uncultivated Bacteroides bacterium (human gut)). Description: SEC-MALS; 30 µl of gel-filtered Uhgb_MP at 6 mg/ml on Superdex 200 HR 10/300 in 20 mM potassium phosphate pH 7.0, 150 mM NaCl, 0.4 ml/min, 15°C. (In general: In gel filtration, larger molecules generally elute earlier.)

For experiment [3] the target is unchanged. Description: SAXS (SEC-SAXS); Bio SEC3 300 column on line with SAXS, 10°C; phosphate buffer or Tris-glycerol buffer (aggregation seen in both); hexamer read from data in Tris-glycerol buffer with 1 mM TCEP; ab initio envelope and rigid-body modelling.
Experiment [4] has the same target. Description: crystal structure; sitting-drop vapour diffusion at 12°C; protein 9-12 mg/ml in 20 mM potassium phosphate pH 7.0, 150 mM NaCl, with or without 5 mM mannose and/or 5 mM N-acetylglucosamine; PEG 3350, ammonium chloride; space group P212121, six molecules per asymmetric unit.
Experiment [5] deals with T1, Uhgb_MP. The following applies: catalytic site; phosphate from 20 mM potassium phosphate buffer pH 7.0; glycerol in -1 subsite; 1.80 A; also in 4udj, 4udg, 4udk.

As to `CC(=O)N[C@H]1C(O)O[C@H](CO)[C@@H](O)[C@@H]1O` (some centres unmarked) [N-acetylglucosamine], the “X-ray crystal structure, co-crystallization” value at Uhgb_MP [1] is “complex with N-acetylglucosamine alone (PDB entry 4udg”. Take “Uhgb_MP, β-1,4-mannopyranosyl-chitobiose phosphorylase (GH130_2 mannoside phosphorylase) (enzyme)”: the stoichiometry N in experiment [2] is 6.16; in experiment [3], 6; in experiment [4] it was 6. For the compound `O=P(O)(O)O` [inorganic phosphate], at Uhgb_MP [5], the X-ray crystal structure entry was “Pi is deeply buried in the catalytic site, strongly stabilized by hydrogen bonds”.

For orientation: stoichiometry N means a count of units in the complex or per binding partner.
